Data from PMC5562816, “Rap1 and Cdc13 have complementary roles in preventing exonucleolytic degradation of telomere 5′ ends”.

Target: T1, Rap1 (Naumovozyma castellii, UniProt Q96VU6 1-826)
T1 sequence: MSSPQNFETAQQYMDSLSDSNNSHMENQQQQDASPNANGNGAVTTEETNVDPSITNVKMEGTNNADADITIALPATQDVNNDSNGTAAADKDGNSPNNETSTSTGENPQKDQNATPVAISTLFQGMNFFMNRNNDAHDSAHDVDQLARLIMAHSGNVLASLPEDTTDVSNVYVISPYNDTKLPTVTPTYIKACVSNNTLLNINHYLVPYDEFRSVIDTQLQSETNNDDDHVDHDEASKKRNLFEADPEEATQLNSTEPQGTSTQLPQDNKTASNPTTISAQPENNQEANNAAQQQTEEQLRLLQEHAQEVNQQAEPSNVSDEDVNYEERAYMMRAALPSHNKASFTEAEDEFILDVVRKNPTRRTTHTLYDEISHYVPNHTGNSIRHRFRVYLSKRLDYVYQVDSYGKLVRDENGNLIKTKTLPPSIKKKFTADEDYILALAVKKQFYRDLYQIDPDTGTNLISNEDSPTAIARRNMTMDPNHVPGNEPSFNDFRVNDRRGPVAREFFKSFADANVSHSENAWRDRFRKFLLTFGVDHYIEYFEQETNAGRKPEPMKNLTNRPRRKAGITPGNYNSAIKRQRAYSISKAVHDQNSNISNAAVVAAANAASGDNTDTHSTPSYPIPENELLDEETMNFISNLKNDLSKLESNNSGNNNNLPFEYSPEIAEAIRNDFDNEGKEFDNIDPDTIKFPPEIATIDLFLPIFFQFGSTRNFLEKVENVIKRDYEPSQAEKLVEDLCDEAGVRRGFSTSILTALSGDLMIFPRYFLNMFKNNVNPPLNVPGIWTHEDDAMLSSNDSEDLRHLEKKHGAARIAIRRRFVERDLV
Test: EMSA; EMSA: 10 fmol probe, 1.5 ug competitor mix (E. coli DNA, salmon sperm DNA, yeast tRNA), 1x lambda-exonuclease buffer (67 mM glycine-KOH pH 9.4, 2.5 (unit not given) MgCl2, BSA 50 ug/ul as printed), 8% glycerol, 15 ul, 25 C 15 min; gel 6% in 1x TBE at 4 C
Details: protein: recombinant; tags: N-terminal 6xHis; label: 32P 3'-deoxy-ATP added to 3' end of C-strand; 3' overhang 9 nt; other end blunt

B1: D17S9m (mixed)
DNA 1: GTCACACGTCACACTCTGGGACTCTCCGTGTCTGGGTGTC
DNA 2: ACACGGAGAGTCCCAGAGTGTGACGTGTGAC
modifications: 5'-phosphate on C-strand (DEPA substrate)
Q: Does B1 bind?
A: Result: no binding
